Changes are numbered by the printed parent chain. Names and notes keep the numbering of the source. Like-named read-outs stand apart in the source and are kept apart here. Blank lines part the entries; values can stand above or below the binder they belong to.
Assays:
human C1q [1] = target: T1, human C1q (human, UniProt P02745 23-245; P02746 28-253; P02747 29-245); experiment: competition ELISA, plate-coated human C1q; competitor biotinylated mouse M1 (0.02 µg/ml); IC50 normalised to chimeric M1
T1 construct: Purified human C1q protein (plate-coated in ELISA, ligand or analyte in SPR, in human serum in CH50); also called hC1q; complement factor C1q
T1 sequence (P02745 23-245 limits assumed, chain 1 of 3): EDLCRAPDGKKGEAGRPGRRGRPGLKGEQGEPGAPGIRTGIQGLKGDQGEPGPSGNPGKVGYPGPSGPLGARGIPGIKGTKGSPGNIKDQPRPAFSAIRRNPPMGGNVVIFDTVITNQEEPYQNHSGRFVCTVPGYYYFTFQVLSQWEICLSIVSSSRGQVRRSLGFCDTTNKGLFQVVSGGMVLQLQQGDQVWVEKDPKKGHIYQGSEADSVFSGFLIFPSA
T1 sequence (P02746 28-253 limits assumed, chain 2 of 3): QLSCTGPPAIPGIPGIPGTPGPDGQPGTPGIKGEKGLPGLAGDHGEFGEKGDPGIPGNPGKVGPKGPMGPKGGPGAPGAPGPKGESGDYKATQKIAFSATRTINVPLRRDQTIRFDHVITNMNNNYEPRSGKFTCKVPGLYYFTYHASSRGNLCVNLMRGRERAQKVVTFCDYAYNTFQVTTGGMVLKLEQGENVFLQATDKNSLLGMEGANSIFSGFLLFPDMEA
T1 sequence (P02747 29-245 limits assumed, chain 3 of 3): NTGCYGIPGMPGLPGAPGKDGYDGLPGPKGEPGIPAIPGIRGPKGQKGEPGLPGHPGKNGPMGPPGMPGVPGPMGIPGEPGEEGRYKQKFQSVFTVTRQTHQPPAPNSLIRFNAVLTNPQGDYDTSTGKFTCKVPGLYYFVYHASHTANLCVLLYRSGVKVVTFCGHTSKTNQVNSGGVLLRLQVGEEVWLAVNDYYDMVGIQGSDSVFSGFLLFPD
Protocol: (§1) The binding of humanized M1 variants to human C1q was analyzed by competition ELISA. A three-fold dilution series of test antibody (5 μg/ml to 0.002 μg/ml) was premixed with a constant concentration of biotinylated mouse M1 antibody (0.02 μg/ml, final concentration) before incubating for 1 hour at 37° C. with shaking on plates pre-coated with human C1q at 1.0 μg/ml. The binding of mouse M1 antibody was detected with streptavidin-peroxidase conjugate (Sigma-Aldrich cat. no. 55512) and TMB (3,3′,5,5′-tetramethylbenzidine) substrate (Thermo Scientific cat. no. 34029). The reaction was stopped with 1M HCl, absorbance read at 450 nm on a Dynex Technologies MRX TC II plate reader and the binding curves plotted.
The binding curves were used to calculate IC₅₀ values (concentration of test antibody that inhibits labelled competitor binding by 50%) for each antibody normalized to the IC₅₀ of chimeric M1 and antibody yields from NS0 transfectants were also compared (Table 1).

human C1q [2] = target: T1, human C1q; experiment: competition ELISA on plate-bound human C1q against biotinylated mouse M1 antibody (0.02 µg/ml); bound biotin-M1 read as OD450
Text: (§2) FIG. 4A, FIG. 4B, FIG. 4C, and FIG. 4D depicts competition ELISA assays for human C1q. A dilution series of purified humanized anti-C1q antibodies were competed against a fixed concentration of biotinylated monoclonal antibody M1 for binding to human C1q. Bound biotinylated M1 antibody was detected using streptavidin-peroxidase conjugate and TMB substrate. FIG. 4A depicts the results with the humanized antibodies VH1/Vκ1, VH1/Vκ2, and VH1/Vκ3. FIG. 4B depicts the results with the humanized antibodies VH1/Vκ4, VH2/Vκ1, VH2/Vκ2, VH2/Vκ3, and VH2/Vκ4. FIG. 4C depicts the results with the humanized antibodies VH3/Vκ1, VH3/Vκ2, VH3/Vκ3, and VH3/Vκ4. FIG. 4D depicts the results with the humanized antibodies VH4/Vκ1, VH4/Vκ2, […], and VH4/Vκ4.
as §1

human C1q [3] = target: T1, human C1q; experiment: as above; remark: listed apart in the source
Text: as §2, §1

human C1q [4] = target: T1, human C1q; experiment: as above; remark: listed apart in the source
Text: as §2, §1

human C1q [5] = target: T1, human C1q; experiment: as above; remark: listed apart in the source
Text: as §2, §1

mouse C1q [6] = target: T2, mouse C1q (mouse, UniProt P98086 23-245; P14106 26-253; Q02105 30-246); experiment: competition ELISA on plate-bound mouse C1q against biotinylated chimeric M1 antibody (0.03 µg/ml); bound biotin-chimeric M1 read as OD450
T2 construct: Purified mouse C1q protein; also called mC1q
T2 sequence (P98086 23-245 limits assumed, chain 1 of 3): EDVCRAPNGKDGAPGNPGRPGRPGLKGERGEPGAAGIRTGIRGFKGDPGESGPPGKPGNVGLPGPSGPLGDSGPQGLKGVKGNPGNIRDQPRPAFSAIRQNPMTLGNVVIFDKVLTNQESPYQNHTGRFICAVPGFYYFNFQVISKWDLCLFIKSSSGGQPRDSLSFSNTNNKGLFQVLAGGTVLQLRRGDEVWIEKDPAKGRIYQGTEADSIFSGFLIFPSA
T2 sequence (P14106 26-253 limits assumed, chain 2 of 3): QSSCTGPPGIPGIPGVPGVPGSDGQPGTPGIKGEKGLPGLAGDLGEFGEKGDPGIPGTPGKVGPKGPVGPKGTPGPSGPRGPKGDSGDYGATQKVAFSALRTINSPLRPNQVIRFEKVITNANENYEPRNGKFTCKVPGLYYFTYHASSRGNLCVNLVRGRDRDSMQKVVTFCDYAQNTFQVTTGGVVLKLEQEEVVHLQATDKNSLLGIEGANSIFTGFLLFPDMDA
T2 sequence (Q02105 30-246 limits assumed, chain 3 of 3): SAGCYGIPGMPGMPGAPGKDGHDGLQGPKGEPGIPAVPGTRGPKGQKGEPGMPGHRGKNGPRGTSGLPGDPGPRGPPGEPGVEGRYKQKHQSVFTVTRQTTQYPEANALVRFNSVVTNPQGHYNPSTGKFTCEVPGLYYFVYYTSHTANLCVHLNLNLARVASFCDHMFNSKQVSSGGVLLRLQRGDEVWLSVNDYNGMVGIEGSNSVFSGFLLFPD
Protocol: (§3) The binding of humanized M1 variants to mouse C1q was analyzed by competition ELISA on four selected antibodies, VH1/Vκ1, VH3/Vκ1, VH3/Vκ4 and VH4/Vκ3. An irrelevant IgG4 (S241P L248E) antibody was also included as a binding control. A three-fold dilution series of test antibody (100 μg/ml to 0.046 μg/ml) was premixed with a constant concentration of biotinylated chimeric M1 antibody (0.03 μg/ml, final concentration) before incubating for 1 hour at 37° C. with shaking on plates pre-coated with mouse C1q at 5.0 μg/ml. The binding of chimeric M1 antibody was detected with streptavidin-peroxidase conjugate (Sigma-Aldrich cat. no. S5512) and TMB substrate (Thermo Scientific cat. no. 34029). The reaction was stopped with 1M HCl, absorbance read at 450 nm on a Dynex Technologies MRX TC II plate reader and the binding curves plotted.
(§4) The binding curves were used to calculate IC₅₀ values for each antibody normalized to the IC₅₀ of chimeric M1 (Table 2).

human C1q [7] = target: T1, human C1q; experiment: cell-based or functional assay
rat C1q = rat C1q (rat, UniProt P31720 23-245; P31721 26-253; P31722 29-245); experiment: cell-based or functional assay
Sequence of rat C1q (P31720 23-245 limits assumed, chain 1 of 3): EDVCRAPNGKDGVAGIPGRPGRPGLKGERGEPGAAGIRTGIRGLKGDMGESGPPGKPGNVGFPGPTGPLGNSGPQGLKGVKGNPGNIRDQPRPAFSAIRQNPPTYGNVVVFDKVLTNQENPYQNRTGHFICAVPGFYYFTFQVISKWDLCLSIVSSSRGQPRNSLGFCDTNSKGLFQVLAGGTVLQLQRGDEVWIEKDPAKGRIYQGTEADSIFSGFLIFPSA
Sequence of rat C1q (P31721 26-253 limits assumed, chain 2 of 3): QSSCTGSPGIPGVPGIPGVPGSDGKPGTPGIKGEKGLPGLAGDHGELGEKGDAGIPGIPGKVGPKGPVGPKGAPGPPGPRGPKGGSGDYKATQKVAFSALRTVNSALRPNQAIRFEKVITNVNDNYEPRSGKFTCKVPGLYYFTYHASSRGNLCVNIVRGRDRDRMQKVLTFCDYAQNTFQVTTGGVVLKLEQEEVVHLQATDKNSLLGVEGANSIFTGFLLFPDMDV
Sequence of rat C1q (P31722 29-245 limits assumed, chain 3 of 3): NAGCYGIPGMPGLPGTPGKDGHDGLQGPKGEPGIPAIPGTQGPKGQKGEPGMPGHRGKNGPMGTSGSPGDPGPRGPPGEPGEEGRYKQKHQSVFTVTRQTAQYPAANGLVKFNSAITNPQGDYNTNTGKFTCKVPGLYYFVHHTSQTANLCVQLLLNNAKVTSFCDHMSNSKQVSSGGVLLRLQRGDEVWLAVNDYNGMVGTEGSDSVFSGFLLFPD

mouse C1q [8] = target: T2, mouse C1q; experiment: competition ELISA, plate-coated mouse C1q; competitor biotinylated chimeric M1 (0.03 µg/ml); IC50 normalised to chimeric M1
Protocol: as §3, §4

human C1q [9] = target: T1, human C1q; experiment: SPR Biacore T200, heterogeneous ligand model, kd1; hC1q immobilised (ligand), IgG analyte
human C1q [10] = target: T1, human C1q; experiment: SPR Biacore T200, heterogeneous ligand model, ka2; hC1q immobilised (ligand), IgG analyte
human C1q [11] = target: T1, human C1q; experiment: SPR Biacore T200, heterogeneous ligand model, KD1; hC1q immobilised (ligand), IgG analyte
human C1q [12] = target: T1, human C1q; experiment: SPR Biacore T200, heterogeneous ligand model, kd2; hC1q immobilised (ligand), IgG analyte
human C1q [13] = target: T1, human C1q; experiment: SPR Biacore T200, 1:1 model; IgG immobilised (ligand), hC1q analyte; mean of 2 analyses
human C1q [14] = target: T1, human C1q; experiment: SPR Biacore T200, 1:1 model; IgG immobilised (ligand), hC1q analyte; analysis 2
human C1q [15] = target: T1, human C1q; experiment: SPR Biacore T200, 1:1 model, single cycle kinetics; hC1q immobilised (ligand), IgG analyte
human C1q [16] = target: T1, human C1q; experiment: SPR Biacore T200, 1:1 model; IgG immobilised (ligand), hC1q analyte; analysis 1
human C1q [17] = target: T1, human C1q; experiment: SPR Biacore T200, heterogeneous ligand model, KD2; hC1q immobilised (ligand), IgG analyte
human C1q [18] = target: T1, human C1q; experiment: SPR Biacore T200, heterogeneous ligand model, ka1; hC1q immobilised (ligand), IgG analyte

Relative IC50 (human C1q [1]): 1.03 ratio to chimeric M1 | IC50 (read off the curve) (human C1q [3]): ~0.3 µg/mL
B2: humanized anti-C1q antibody VH4/Vκ1 (antibody, human IgG4)
heavy: not shown
light: DVQITQSPSYLAASLGERATINCRASKSINKYLAWYQQKPGKTNKLLIYSGSTLQSGIPARFSGSGSGTDFTLTISSLEPEDFAMYYCQQHNEYPLTFGQGTKLEIK
notes: Full-length human IgG4 (S241P L248E) / human kappa, expressed in NS0, Protein A purified; not shown: human kappa light chain constant region

Relative IC50 (human C1q [1]): 0.91 ratio to chimeric M1 | IC50 (read off the curve) (human C1q [4]): ~0.3 µg/mL
B3: humanized anti-C1q antibody VH1/Vκ3 (antibody, human IgG4)
heavy: not shown
light: B2 light with Y10S, A12S, T43A, N44P
notes: as for B2

Relative IC50 (human C1q [1]): 0.82 ratio to chimeric M1 | IC50 (read off the curve) (human C1q [5]): ~0.3 µg/mL
B5: humanized anti-C1q antibody VH3/Vκ2 (antibody, human IgG4)
heavy: not shown
light: B2 light with Y10S, A12S, T43A
notes: as for B2

Relative IC50 (human C1q [1]): 0.84 ratio to chimeric M1 | IC50 (read off the curve) (human C1q [4]): ~0.3 µg/mL
B8: humanized anti-C1q antibody VH1/Vκ2 (antibody, human IgG4)
heavy: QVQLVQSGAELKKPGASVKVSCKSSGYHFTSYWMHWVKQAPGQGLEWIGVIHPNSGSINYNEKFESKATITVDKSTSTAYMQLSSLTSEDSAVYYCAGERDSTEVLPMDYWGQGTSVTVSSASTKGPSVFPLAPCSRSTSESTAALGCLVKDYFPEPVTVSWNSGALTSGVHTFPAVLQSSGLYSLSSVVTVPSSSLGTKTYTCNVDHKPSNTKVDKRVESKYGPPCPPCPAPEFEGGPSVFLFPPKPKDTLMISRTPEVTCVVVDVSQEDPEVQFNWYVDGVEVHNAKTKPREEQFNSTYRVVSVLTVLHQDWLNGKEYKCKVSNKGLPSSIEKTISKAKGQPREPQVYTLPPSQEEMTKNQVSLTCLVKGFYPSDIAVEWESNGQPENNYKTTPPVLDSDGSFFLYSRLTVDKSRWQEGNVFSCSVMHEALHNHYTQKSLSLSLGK
light: B2 light with Y10S, A12S, T43A
notes: as for B2

Relative IC50 (human C1q [1]): 0.65 ratio to chimeric M1 | IC50 (read off the curve) (human C1q [5]): ~0.2 µg/mL
B9: humanized anti-C1q antibody VH3/Vκ1 (antibody, human IgG4)
heavy: not shown
light: B2 light
notes: as for B2

Relative IC50 (human C1q [1]): 1.15 ratio to chimeric M1 | IC50 (read off the curve) (human C1q [2]): ~0.3 µg/mL
B13: humanized anti-C1q antibody VH2/Vκ1 (antibody, human IgG4)
heavy: not shown
light: B2 light
notes: as for B2

Relative IC50 (human C1q [1]): 0.92 ratio to chimeric M1 | IC50 (read off the curve) (human C1q [3]): ~0.2 µg/mL
B14: humanized anti-C1q antibody VH4/Vκ4 (antibody, human IgG4)
heavy: not shown
light: B2 light with V2I, I4L, Y10S, A12S, T43A, N44P
notes: as for B2

Relative IC50 (human C1q [1]): 0.84 ratio to chimeric M1 | IC50 (read off the curve) (human C1q [3]): ~0.2 µg/mL
B15: humanized anti-C1q antibody VH4/Vκ2 (antibody, human IgG4)
heavy: not shown
light: B2 light with Y10S, A12S, T43A
notes: as for B2

Second part, the binder before the results:

B1: humanized anti-C1q antibody VH2/Vκ2 (antibody, human IgG4)
heavy: not shown
light: B2 light with Y10S, A12S, T43A
notes: as for B2
Relative IC50 (human C1q [1]): 1.12 ratio to chimeric M1 | IC50 (read off the curve) (human C1q [2]): ~0.3 µg/mL

B4: humanized anti-C1q antibody VH1/Vκ4 (antibody, human IgG4)
heavy: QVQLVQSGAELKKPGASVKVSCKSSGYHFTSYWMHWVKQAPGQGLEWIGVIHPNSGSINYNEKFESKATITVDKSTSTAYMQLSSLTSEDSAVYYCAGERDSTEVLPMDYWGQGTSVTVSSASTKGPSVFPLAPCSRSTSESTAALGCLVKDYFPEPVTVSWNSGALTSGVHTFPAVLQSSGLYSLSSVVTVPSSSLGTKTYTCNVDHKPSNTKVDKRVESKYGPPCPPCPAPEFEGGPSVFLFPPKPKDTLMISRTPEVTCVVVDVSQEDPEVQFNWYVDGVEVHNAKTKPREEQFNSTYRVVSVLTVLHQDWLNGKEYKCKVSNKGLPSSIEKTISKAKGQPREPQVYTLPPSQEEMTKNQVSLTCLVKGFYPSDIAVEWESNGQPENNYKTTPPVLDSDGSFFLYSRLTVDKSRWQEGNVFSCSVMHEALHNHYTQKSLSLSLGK
light: B2 light with V2I, I4L, Y10S, A12S, T43A, N44P
notes: as for B2
Relative IC50 (human C1q [1]): 0.8 ratio to chimeric M1 | IC50 (read off the curve) (human C1q [2]): ~0.2 µg/mL

B6: humanized anti-C1q antibody VH2/Vκ3 (antibody, human IgG4)
heavy: not shown
light: B2 light with Y10S, A12S, T43A, N44P
notes: as for B2
Relative IC50 (human C1q [1]): 0.75 ratio to chimeric M1 | IC50 (read off the curve) (human C1q [2]): ~0.2 µg/mL

B7: humanized anti-C1q antibody VH4/Vκ3 (antibody, human IgG4)
heavy: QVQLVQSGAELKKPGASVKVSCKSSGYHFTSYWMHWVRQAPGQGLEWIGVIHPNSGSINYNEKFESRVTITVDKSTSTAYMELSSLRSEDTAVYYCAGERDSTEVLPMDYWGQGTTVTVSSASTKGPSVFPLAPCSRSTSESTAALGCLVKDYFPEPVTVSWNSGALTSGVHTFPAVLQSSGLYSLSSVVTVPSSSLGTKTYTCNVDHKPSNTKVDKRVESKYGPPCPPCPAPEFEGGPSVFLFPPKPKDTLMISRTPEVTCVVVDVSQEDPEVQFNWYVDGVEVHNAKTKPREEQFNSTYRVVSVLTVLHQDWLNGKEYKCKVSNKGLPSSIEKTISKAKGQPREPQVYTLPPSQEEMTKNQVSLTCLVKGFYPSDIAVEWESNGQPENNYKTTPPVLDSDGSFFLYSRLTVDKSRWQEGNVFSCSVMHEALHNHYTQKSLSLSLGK
light: B2 light with Y10S, A12S, T43A, N44P
notes: Full-length human IgG4 (S241P L248E) / human kappa, expressed in NS0, Protein A purified; also called 1D3; not shown: human kappa light chain constant region
Relative IC50 (human C1q [1]): 0.77 ratio to chimeric M1 | IC50 (read off the curve) (mouse C1q [6]): ~6 µg/mL | amount of antibody required to inhibit 50% of human CH50 hemolysis (human C1q [7]): ~60 ng | amount of antibody required to inhibit approximately 50% to approximately 80% of rat CH50 hemolysis (rat C1q): ~60 ng | Relative IC50 (mouse C1q [8]): 1.84 ratio to chimeric M1 | IC50 (read off the curve) (human C1q [3]): ~0.2 µg/mL

B10: humanized anti-C1q antibody VH3/Vκ4 (antibody, human IgG4)
heavy: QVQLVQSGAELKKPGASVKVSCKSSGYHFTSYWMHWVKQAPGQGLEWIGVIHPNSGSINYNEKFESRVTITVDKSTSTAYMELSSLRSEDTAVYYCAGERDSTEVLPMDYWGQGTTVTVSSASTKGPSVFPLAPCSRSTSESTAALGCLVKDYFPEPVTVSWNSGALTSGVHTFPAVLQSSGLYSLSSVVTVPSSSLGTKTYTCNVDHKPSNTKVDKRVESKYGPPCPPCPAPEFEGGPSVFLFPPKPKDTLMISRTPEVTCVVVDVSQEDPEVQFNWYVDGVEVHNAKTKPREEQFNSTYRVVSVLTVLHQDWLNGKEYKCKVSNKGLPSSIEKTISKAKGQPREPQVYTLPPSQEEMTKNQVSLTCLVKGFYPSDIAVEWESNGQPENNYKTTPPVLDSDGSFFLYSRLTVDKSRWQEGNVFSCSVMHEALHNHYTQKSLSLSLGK
light: B2 light with V2I, I4L, Y10S, A12S, T43A, N44P
notes: Full-length human IgG4 (S241P L248E) / human kappa, expressed in NS0, Protein A purified; also called 3F1; not shown: human kappa light chain constant region
Relative IC50 (human C1q [1]): 0.83 ratio to chimeric M1 | IC50 (read off the curve) (mouse C1q [6]): ~6 µg/mL | amount of antibody required to inhibit approximately 50% to approximately 80% of rat CH50 hemolysis (rat C1q): ~60 ng | IC50 (read off the curve) (human C1q [5]): ~0.3 µg/mL | Relative IC50 (mouse C1q [8]): 1.91 ratio to chimeric M1

B11: humanized anti-C1q antibody VH3/Vκ3 (full-length IgG) (antibody)
heavy: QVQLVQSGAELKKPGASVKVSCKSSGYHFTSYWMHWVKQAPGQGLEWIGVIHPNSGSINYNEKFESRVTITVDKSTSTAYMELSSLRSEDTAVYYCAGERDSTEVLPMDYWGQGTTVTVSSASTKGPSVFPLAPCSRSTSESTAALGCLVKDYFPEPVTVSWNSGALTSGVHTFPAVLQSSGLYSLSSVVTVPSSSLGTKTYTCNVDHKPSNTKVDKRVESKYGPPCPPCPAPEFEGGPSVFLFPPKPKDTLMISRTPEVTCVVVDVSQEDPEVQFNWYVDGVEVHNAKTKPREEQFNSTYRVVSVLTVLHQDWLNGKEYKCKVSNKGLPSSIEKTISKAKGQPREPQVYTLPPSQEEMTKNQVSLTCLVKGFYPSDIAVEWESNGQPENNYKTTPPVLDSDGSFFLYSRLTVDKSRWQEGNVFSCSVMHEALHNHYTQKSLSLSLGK
light: B2 light with Y10S, A12S, T43A, N44P
notes: Full-length human IgG4 (S241P L248E) / human kappa, expressed in NS0; also called IgG VH3/Vκ3; IgG-VH3/Vκ3; not shown: human kappa light chain constant region
koff (human C1q [9]): 4.6e-06 s⁻¹ | Relative IC50 (human C1q [1]): 0.63 ratio to chimeric M1 | kon (human C1q [10]): 16000 M⁻¹ s⁻¹ | IC50 (read off the curve) (mouse C1q [6]): ~5 µg/mL | Kd (human C1q [11]): 22700 pM | koff (human C1q [12]): 1.1e-07 s⁻¹ | Kd (human C1q [13]): 5.8 pM | koff (human C1q [13]): 5.8e-06 s⁻¹ | kon (human C1q [13]): 1e+06 M⁻¹ s⁻¹ | Kd (human C1q [14]): 4.9 pM | koff (human C1q [14]): 5.1e-06 s⁻¹ | kon (human C1q [14]): 1.1e+06 M⁻¹ s⁻¹ | Kd (human C1q [15]): 7.9 pM | koff (human C1q [15]): 3.1e-07 s⁻¹ | kon (human C1q [15]): 39000 M⁻¹ s⁻¹ | amount of antibody required to inhibit 50% of human CH50 hemolysis (human C1q [7]): ~60 ng | amount of antibody required to inhibit approximately 50% to approximately 80% of rat CH50 hemolysis (rat C1q): ~60 ng | Kd (human C1q [16]): 6.7 pM | koff (human C1q [16]): 6.4e-06 s⁻¹ | kon (human C1q [16]): 960000 M⁻¹ s⁻¹ | IC50 (read off the curve) (human C1q [5]): ~0.2 µg/mL | Relative IC50 (mouse C1q [8]): 1.5 ratio to chimeric M1 | Kd (human C1q [17]): 7300 pM | kon (human C1q [18]): 200000 M⁻¹ s⁻¹

B12: humanized anti-C1q antibody VH1/Vκ1 (antibody, human IgG4)
heavy: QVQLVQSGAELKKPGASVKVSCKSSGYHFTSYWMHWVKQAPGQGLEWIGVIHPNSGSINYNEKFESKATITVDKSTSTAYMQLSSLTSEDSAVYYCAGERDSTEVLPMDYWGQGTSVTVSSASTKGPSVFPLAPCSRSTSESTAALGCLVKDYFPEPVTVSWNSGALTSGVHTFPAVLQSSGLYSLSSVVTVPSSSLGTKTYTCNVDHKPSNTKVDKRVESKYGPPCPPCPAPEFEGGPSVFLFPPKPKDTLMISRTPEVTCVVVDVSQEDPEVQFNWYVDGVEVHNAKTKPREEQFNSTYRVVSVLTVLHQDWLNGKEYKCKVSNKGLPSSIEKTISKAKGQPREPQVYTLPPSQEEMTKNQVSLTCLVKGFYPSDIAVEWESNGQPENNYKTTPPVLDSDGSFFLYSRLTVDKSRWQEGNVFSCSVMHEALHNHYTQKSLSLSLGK
light: B2 light
notes: Full-length human IgG4 (S241P L248E) / human kappa, expressed in NS0, Protein A purified; also called 2B12; not shown: human kappa light chain constant region
Relative IC50 (human C1q [1]): 0.9 ratio to chimeric M1 | IC50 (read off the curve) (mouse C1q [6]): ~5 µg/mL | IC50 (read off the curve) (human C1q [4]): ~0.3 µg/mL | amount of antibody required to inhibit 50% of human CH50 hemolysis (human C1q [7]): ~60 ng | amount of antibody required to inhibit approximately 50% to approximately 80% of rat CH50 hemolysis (rat C1q): ~60 ng | Relative IC50 (mouse C1q [8]): 1.62 ratio to chimeric M1

B16: humanized anti-C1q antibody VH2/Vκ4 (antibody, human IgG4)
heavy: not shown
light: B2 light with V2I, I4L, Y10S, A12S, T43A, N44P
notes: as for B2
Relative IC50 (human C1q [1]): 0.72 ratio to chimeric M1 | IC50 (read off the curve) (human C1q [2]): ~0.2 µg/mL

Source: patent US20190315845A1 (ANNEXON, published 2019)
